Experimental data as given in patent US20220281976A1 (Alector, published 2022).
Positions count from the first letter of the chain named.

T1: mouse CD33 Fc fusion protein (mouse, UniProt Q63994 18-240, limits assumed)
T1 construct: also called mCD33-Fc
T1 sequence: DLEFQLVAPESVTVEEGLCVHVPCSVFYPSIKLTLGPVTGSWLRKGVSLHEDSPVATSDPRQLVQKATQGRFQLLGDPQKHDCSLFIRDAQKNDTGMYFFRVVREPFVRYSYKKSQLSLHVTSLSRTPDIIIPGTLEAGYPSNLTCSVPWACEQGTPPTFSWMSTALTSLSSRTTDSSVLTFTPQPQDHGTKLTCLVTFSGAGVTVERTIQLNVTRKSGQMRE

B1: C-18 (antibody, V domains shown)
VH: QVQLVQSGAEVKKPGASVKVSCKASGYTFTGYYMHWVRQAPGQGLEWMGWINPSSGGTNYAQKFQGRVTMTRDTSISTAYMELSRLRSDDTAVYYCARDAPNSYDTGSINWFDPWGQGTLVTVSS
VL: DIQMTQSPSSVSASVGDRVTITCRASQGISSWLAWYQQKPGKAPKLLIYAASSLQSGVPSRFSGSGSGTDFTLTISSLQPEDFATYYCQQANYHPLTFGGGTKVEIK
notes: human IgG1
B2: C-39 (antibody, V domains shown)
VH: QLQLQESGPGLVKPSETLSLTCTVSGGSISSSSYYWGWIRQPPGKGLEWIGSIYYSGSTYYNPSLKSRVTISVDTSKNQFSLKLSSVTAADTAVYYCAREGVRGMDVWGQGTTVTVSS
VL: EIVLTQSPGTLSLSPGERATLSCRASQSVSSSYLAWYQQKPGQAPRLLIYGASSRATGIPDRFSGSGSGTDFTLTISRLEPEDFAVYYCQQFAFLPPTFGGGTKVEIK
notes: human IgG1
B3: C-41 (antibody, V domains shown)
VH: B2 VH with Y54S, V102G, R103K, T113L
VL: EIVLTQSPGTLSLSPGERATLSCRASQSVSSSFLAWYQQKPGQAPRLLIYGASSRATGIPDRFSGSGSGTDFTLTISRLEPEDFAVYYCQQFGDLPTFGGGTKVEIK
notes: human IgG1
B4: C-37 (antibody, V domains shown)
VH: QLQLQESGPGLVKPSETLSLTCTVSGGSISSSSYYWGWIRQPPGKGLEWIGSISYSGSTYYNPSLKSRVTISVDTSKNQFSLKLSSVTAADTAVYYCAREHRAADAGSNVWGQGTMVTVSS
VL: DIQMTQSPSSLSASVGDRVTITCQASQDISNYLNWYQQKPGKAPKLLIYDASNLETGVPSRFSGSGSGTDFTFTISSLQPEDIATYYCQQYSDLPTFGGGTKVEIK
notes: human IgG1
B5: C-44 (antibody, V domains shown)
VH: B4 VH with Y35A, S54Y, H101G, R102Y, A103V, D105A, A106Y, S108M, N109D, M116T
VL: B1 VL with V11L, G28S, W32Y, A34N, N92Y, H94P, L96W
notes: human IgG1
B6: C-67 (antibody, V domains shown)
VH: B4 VH with S54Y, H101V, R102S, A103G, A104T, D105R, A106H, S108M, N109D, M116T
VL: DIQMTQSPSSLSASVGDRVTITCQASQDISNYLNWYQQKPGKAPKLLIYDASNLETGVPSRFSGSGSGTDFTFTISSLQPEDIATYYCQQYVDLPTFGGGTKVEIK
notes: human IgG1
B7: C-38 (antibody, V domains shown)
VH: QLQLQESGPGLVKPSETLSLTCTVSGGSISSSSYYWGWIRQPPGKGLEWIGSIYYSGSTYYNPSLKSRVTISVDTSKNQFSLKLSSVTAADTAVYYCAREATAAADHPGMDVWGQGTTVTVSS
VL: DIQMTQSPSSLSASVGDRVTITCQASQDITNYLNWYQQKPGKAPKLLIYDASNLETGVPSRFSGSRSGTDFTFTISSLQPEDIATYYCQQYHDFPTFGGGTKVEIK
notes: human IgG1
B8: C-43 (antibody, V domains shown)
VH: QVQLVQSGAEVKKPGASVKVSCKASGYTFTSYYMHWVRQAPGQGLEWMGVINPSGGSTSYAQKFQGRVTMTRDTSTSTVYMELSSLRSEDTAVYYCAREEAVAADLGVDVWGQGTTVTVSS
VL: not shown
notes: human IgG1
B9: C-40 (antibody, V domains shown)
VH: EVQLVESGGGLVQPGGSLRLSCAASGFTFSSYWMSWVRQAPGKGLEWVANIKQDGSEKYYVDSVKGRFTISRDNAKNSLYLQMNSLRAEDTAVYYCAREGGYVGHGMDVWGQGTTVTVSS
VL: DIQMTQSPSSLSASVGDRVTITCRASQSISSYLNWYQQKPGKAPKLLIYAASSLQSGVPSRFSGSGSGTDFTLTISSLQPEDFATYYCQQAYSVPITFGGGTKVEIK
notes: human IgG1
B10: C-1 (antibody, V domains shown)
VH: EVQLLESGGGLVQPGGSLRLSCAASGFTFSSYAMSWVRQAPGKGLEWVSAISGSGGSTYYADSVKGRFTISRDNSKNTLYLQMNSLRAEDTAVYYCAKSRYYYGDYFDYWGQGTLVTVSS
VL: EIVLTQSPATLSLSPGERATLSCRASQSVSSYLAWYQQKPGQAPRLLIYDASNRATGIPARFSGSGSGTDFTLTISSLEPEDFAVYYCQQYYFWPLTFGGGTKVEIK
notes: full-length human IgG1
B11: C-63 (antibody, V domains shown)
VH: QVQLVQSGAEVKKPGSSVKVSCKASGGTFSSYAISWVRQAPGQGLEWMGSIIPIFGTANYAQKFQGRVTITADESTSTAYMELSSLRSEDTAVYYCARDLGGQYYGSHHYWGQGTLVTVSS
VL: B10 VL with L13V, S30G, Y32N, D50G, N53T, D70E, E79Q, P80S, Y92N, F93A
notes: human IgG1
B12: C-62 (antibody, V domains shown)
VH: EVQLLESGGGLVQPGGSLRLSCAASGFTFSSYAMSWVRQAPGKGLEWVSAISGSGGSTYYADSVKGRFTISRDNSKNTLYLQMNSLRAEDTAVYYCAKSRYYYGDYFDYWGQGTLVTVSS
VL: EIVMTQSPATLSVSPGERATLSCRASQSVSSNLAWYQQKPGQAPRLLIYGASTRATGIPARFSGSGSGTEFTLTISSLQSEDFAVYYCQQFSNWPLTFGGGTKVEIK
notes: human IgG1

Molecular target: T2, human CD33 (human, UniProt P20138 18-364)
T2 sequence (P20138 18-364): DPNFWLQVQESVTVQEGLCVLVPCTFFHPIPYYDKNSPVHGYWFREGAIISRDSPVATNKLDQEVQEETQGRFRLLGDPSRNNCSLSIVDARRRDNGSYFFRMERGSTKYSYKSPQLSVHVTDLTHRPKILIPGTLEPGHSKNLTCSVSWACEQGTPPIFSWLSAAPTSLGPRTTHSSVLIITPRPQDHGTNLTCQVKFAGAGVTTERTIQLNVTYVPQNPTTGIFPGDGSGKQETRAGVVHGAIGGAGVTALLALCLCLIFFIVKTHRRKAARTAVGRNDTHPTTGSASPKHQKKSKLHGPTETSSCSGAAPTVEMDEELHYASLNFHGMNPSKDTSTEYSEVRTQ
Experiment: cell-based or functional assay

Percent CD33 Surface Expression, DC % CD33 [%] | Percent CD33 Surface Expression, Monocyte % CD33 [%] | Percent CD33 Surface Expression, Macrophage % CD33 [%] | Binder
80 | 84.8 |  | B1
22.8 | 27.2 | 46.5 | B2
18.6 | 40.8 | 39.5 | B3
19 | 32.2 | 55.3 | B4
14.7 | 24.8 | 57.3 | B5
17 | 23.8 | 51 | B6
17.9 | 27.6 | 49.1 | B7
24.5 | 34.9 | 42.5 | B8
17.8 | 24.2 | 35.2 | B9
80.9 | 100 | 94.4 | B10
56.8 | 75.6 |  | B11
78.4 | 87.4 |  | B12

Molecular target: T3, human CD33 Fc fusion protein (human, UniProt P20138 18-259)
T3 construct: also called hCD33-Fc; human CD33/Fc chimera (R&D Systems)
T3 sequence (P20138 18-259 limits assumed): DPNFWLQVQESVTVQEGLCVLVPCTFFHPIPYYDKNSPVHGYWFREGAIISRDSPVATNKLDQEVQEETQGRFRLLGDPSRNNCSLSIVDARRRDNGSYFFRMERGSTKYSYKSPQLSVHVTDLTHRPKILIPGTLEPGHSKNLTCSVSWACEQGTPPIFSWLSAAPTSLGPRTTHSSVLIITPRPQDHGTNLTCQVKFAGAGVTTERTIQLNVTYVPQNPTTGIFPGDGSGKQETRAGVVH
Experiment: RBC adhesion to plate-bound CD33-Fc; antibody 0.5 ug/ml;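 further: Plate-coated CD33-Fc preincubated 1 h with antibody, then red blood cells added for 1 h at room temperature, adherent cells lysed and quantified via peroxidase activity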

Percent RBC Binding to CD33 [%] | Binder
111 | B1
12.5 | B2
10.7 | B3
11 | B4
13.3 | B5
22.9 | B6
15.6 | B7
13.8 | B8
19.7 | B9
93.2 | B10
17.1 | B11
95.7 | B12

Molecular target: T2, human CD33
Experiment: flow cytometry, human primary macrophages;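 further: binding of CD33 antibodies at 10 µg/ml to human primary macrophages, 1 h on ice, detected with PE-labelled secondary antibody by flow cytometry, reported as MFI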
Description: (§1) Initial characterization of CD33 antibodies involved determining their ability to bind CD33 expressed on a CHO cell line, on human primary monocytes, human primary macrophages, human primary dendritic cells, and on human primary T cells. Cells were harvested, plated at 10⁶/ml in a 96 well plate, and incubated in 100 ul PBS containing 2% FBS, 2 mM EDTA and 10 ug/ml Mab and Fc blocking reagent for 1 hour in ice. Cells were washed twice and incubated in 100 ul PBS containing 2% FBS, 2 mM EDTA and 5 ug/ml PE-conjugated secondary antibody for 30 minutes on ice. Cells were washed twice in cold PBS and analyze by flow cytometry on a BD FACS Canto. Data analysis and calculation of MFI values was performed with FlowJo (TreeStar) software version 10.0.7.

Macrophage MFI | Binder
981 | B1
802 | B2
945 | B3
952 | B4
892 | B5
831 | B6
904 | B7
908 | B8
663 | B9
924 | B10
872 | B11
520 | B12

Molecular target: T3, human CD33 Fc fusion protein
Experiment: ForteBio BLI or MSD-SET, IgG, avid;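 further: Anti-CD33 IgG affinity by BLI, IgG captured on AHQ sensors with antigen in solution and a one-to-one kinetic fit, or by MSD solution equilibrium titration with quadratic fit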

Kd [nM] | Binder
2.06 | B2
1.06 | B3
0.409 | B4
0.612 | B5
1.19 | B6
1.28 | B7
2.06 | B8
1.86 | B9
2.53 | B10
4.01 | B11
4.07 | B12

Molecular target: T2, human CD33
Experiment: flow cytometry, human primary dendritic cells;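 further: binding of anti-CD33 antibodies (10 ug/ml, 1 h on ice) to human primary dendritic cells, detected with a PE-labelled secondary antibody, reported as flow cytometry MFI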
Description: as §1

DC MFI | Binder
1190 | B1
2000 | B2
1810 | B3
1840 | B4
1520 | B5
1420 | B6
1740 | B7
1500 | B8
1470 | B9
1440 | B10
1200 | B11
1660 | B12

Molecular target: T4, human monomeric His tagged CD33 protein (human, UniProt P20138 18-259)
T4 construct: also called hCD33-His
T4 sequence (P20138 18-259 limits assumed): as above
Experiment: ForteBio BLI or MSD-SET, IgG, monomeric antigen;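 further: BLI: antibodies captured on AHQ sensors, 100 nM antigen association 5 min, dissociation 5 min, 1:1 fit. MSD-SET: antigen fixed at 50 pM, antibody titrated, quadratic fit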
Description: The binding affinity of each anti-CD33 antibody was determined by measuring their KD by ForteBio or MSD-SET. […] Briefly, ForteBio affinity measurements were performed by loading IgGs on-line onto AHQ sensors. Sensors were equilibrated off-line in assay buffer for 30 min and then monitored on-line for 60 seconds for baseline establishment. Sensors with loaded IgGs were exposed to 100 nM antigen for 5 minutes, then transferred to assay buffer for 5 min for off-rate measurement. Kinetics were analyzed using the 1:1 binding model.
Solution equilibrium titrations (SET) were performed in PBS+0.1% IgG-Free BSA (PBSF) with antigen held constant at 50 pM and incubated with 3-to 5-fold serial dilutions of antibody starting at 10 nM. Antibodies (20 nM in PBS) were coated onto standard bind MSD-ECL plates overnight at 4° C. or at room temperature for 30 min. Plates were then blocked for 30 min with shaking at 700 rpm, followed by three washes with wash buffer (PBSF+0.05% Tween 20). SET samples were applied and incubated on the plates for 150s with shaking at 700 rpm followed by one wash. Antigen captured on a plate was detected with 250 ng/mL sulfotag-labeled streptavidin in PBSF by incubation on the plate for 3 min. The plates were washed three times with wash buffer and then read on the MSD Sector Imager 2400 instrument using 1× Read Buffer T with surfactant. The percent free antigen was plotted as a function of titrated antibody in Prism and fit to a quadratic equation to extract the KD. To improve throughput, liquid handling robots were used throughout MSD-SET experiments, including SET sample preparation.

Kd [nM] | Binder
16.1 | B1
9.97 | B2
4.37 | B3
2.72 | B4
2.62 | B5
5.33 | B6
5.25 | B7
9.04 | B8
10.6 | B9
9.69 | B10
23.6 | B12

Molecular target: T2, human CD33
Experiment: flow cytometry, human primary T cells;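 further: binding of anti-CD33 antibodies at 10 ug/ml to human primary T cells, 1 h on ice, detected with PE-labelled secondary antibody, read as flow cytometry MFI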
Description: as §1

T cell MFI | Binder
43.4 | B1
1210 | B2
208 | B3
213 | B4
310 | B5
209 | B6
267 | B7
192 | B8
210 | B9
461 | B10
28.8 | B11
96.4 | B12

Molecular target: T3, human CD33 Fc fusion protein
Experiment: RBC adhesion to plate-bound CD33-Fc; antibody 1.0 ug/ml;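 further: red blood cells adhering to plate-coated CD33-Fc after 1 h antibody pretreatment, then 1 h at room temperature, bound cells read as peroxidase activity after lysis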

Percent RBC Binding to CD33 [%] | Binder
119 | B1
5.11 | B2
8.19 | B3
5.6 | B4
10.5 | B5
10.7 | B6
10.3 | B7
8.99 | B8
12.1 | B9
91.5 | B10
5.66 | B11
84 | B12

Molecular target: T1, mouse CD33 Fc fusion protein
Experiment: ForteBio BLI or MSD-SET

binding result | Binder
no binding (tested: 100 nM) | B1
no binding (tested: 100 nM) | B2
no binding (tested: 100 nM) | B3
no binding (tested: 100 nM) | B4
no binding (tested: 100 nM) | B5
no binding (tested: 100 nM) | B6
no binding (tested: 100 nM) | B7
no binding (tested: 100 nM) | B8
no binding (tested: 100 nM) | B9
no binding (tested: 100 nM) | B10
no binding (tested: 100 nM) | B11
no binding (tested: 100 nM) | B12

Molecular target: T2, human CD33
Experiment: flow cytometry, human primary monocytes;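 further: binding of anti-CD33 antibodies at 10 ug/ml to human primary monocytes, 1 h on ice, detected by PE-labelled secondary antibody, flow cytometry readout as mean fluorescence intensity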
Parameters: reference not given here

Monocyte MFI | Binder
189 | B1
181 | B2
180 | B3
203 | B4
161 | B5
151 | B6
166 | B7
151 | B8
76 | B9
177 | B10
117 | B11
197 | B12
